Source: patent US7884067B2, “Peptides derived from cadherin and methods of use thereof” (Mount Sinai School of Medicine of New York University, priority 2001, dated 2011)

Tests used:
[1] = system: CRE-dependent transactivation; test: CRE-dependent transactivation in N2a cells; format: cell-based, mouse; design: dose or concentration left out as unconfirmed; settings: 16 hours, vs DMSO, FIG. 10A
Protocol: Transactivation assays. CRE-dependent transactivation was measured in the absence or presence of overexpression of PKA (pFC-PKA, Stratagene) by cotransfection with CRE-luciferase reporter plasmid (pCRE-Luc, Stratagene) and pSV-β-galactosidase vector (Promega) to evaluate transfection efficiency. CHOP-mediated transactivation was measured by cotransfection with the Gal4-fusion trans-activator plasmids (pFA-CHOP and pFR-Luc, Stratagene). 30 hours after transfection, luciferase and β-galactosidase activities were determined following manufacturer's instructions using a TD-20/20 luminometer (Turner Designs) and a DU-64 spectrophotometer (Beckman). Values were normalized to β-galactosidase activity and protein concentration.
N2a cells co-transfected with plasmids pCRE-luc, pFC-PKA, and pSV-β-galactosidase were incubated for 16 hours with DMSO or with L-685,458 ([…]) and CRE-dependent transactivation was measured as described above. […] Total RNA isolated from N2a cells treated either with DMSO or with L-685,458, was analyzed by semiquantitative RT-PCR using specific primers for c-fos and gapdh. The graph in FIG. 10B represents the relative abundance of c-fos-specific PCR products following quantitation of the mRNA signals shown in the upper panel. […]

CBP = biological target: T1, CBP (Mus musculus, UniProt P45481); test: Nuclear/cytosolic fractionation of transfected L cells (Western blot); format: cell-based
T1 construct: a process that relies on endogenous CBP and CREB; endogenous in cells; host or cells: L cells transfected with vector or pN-Cad/CTF2
T1 sequence (P45481 whole entry): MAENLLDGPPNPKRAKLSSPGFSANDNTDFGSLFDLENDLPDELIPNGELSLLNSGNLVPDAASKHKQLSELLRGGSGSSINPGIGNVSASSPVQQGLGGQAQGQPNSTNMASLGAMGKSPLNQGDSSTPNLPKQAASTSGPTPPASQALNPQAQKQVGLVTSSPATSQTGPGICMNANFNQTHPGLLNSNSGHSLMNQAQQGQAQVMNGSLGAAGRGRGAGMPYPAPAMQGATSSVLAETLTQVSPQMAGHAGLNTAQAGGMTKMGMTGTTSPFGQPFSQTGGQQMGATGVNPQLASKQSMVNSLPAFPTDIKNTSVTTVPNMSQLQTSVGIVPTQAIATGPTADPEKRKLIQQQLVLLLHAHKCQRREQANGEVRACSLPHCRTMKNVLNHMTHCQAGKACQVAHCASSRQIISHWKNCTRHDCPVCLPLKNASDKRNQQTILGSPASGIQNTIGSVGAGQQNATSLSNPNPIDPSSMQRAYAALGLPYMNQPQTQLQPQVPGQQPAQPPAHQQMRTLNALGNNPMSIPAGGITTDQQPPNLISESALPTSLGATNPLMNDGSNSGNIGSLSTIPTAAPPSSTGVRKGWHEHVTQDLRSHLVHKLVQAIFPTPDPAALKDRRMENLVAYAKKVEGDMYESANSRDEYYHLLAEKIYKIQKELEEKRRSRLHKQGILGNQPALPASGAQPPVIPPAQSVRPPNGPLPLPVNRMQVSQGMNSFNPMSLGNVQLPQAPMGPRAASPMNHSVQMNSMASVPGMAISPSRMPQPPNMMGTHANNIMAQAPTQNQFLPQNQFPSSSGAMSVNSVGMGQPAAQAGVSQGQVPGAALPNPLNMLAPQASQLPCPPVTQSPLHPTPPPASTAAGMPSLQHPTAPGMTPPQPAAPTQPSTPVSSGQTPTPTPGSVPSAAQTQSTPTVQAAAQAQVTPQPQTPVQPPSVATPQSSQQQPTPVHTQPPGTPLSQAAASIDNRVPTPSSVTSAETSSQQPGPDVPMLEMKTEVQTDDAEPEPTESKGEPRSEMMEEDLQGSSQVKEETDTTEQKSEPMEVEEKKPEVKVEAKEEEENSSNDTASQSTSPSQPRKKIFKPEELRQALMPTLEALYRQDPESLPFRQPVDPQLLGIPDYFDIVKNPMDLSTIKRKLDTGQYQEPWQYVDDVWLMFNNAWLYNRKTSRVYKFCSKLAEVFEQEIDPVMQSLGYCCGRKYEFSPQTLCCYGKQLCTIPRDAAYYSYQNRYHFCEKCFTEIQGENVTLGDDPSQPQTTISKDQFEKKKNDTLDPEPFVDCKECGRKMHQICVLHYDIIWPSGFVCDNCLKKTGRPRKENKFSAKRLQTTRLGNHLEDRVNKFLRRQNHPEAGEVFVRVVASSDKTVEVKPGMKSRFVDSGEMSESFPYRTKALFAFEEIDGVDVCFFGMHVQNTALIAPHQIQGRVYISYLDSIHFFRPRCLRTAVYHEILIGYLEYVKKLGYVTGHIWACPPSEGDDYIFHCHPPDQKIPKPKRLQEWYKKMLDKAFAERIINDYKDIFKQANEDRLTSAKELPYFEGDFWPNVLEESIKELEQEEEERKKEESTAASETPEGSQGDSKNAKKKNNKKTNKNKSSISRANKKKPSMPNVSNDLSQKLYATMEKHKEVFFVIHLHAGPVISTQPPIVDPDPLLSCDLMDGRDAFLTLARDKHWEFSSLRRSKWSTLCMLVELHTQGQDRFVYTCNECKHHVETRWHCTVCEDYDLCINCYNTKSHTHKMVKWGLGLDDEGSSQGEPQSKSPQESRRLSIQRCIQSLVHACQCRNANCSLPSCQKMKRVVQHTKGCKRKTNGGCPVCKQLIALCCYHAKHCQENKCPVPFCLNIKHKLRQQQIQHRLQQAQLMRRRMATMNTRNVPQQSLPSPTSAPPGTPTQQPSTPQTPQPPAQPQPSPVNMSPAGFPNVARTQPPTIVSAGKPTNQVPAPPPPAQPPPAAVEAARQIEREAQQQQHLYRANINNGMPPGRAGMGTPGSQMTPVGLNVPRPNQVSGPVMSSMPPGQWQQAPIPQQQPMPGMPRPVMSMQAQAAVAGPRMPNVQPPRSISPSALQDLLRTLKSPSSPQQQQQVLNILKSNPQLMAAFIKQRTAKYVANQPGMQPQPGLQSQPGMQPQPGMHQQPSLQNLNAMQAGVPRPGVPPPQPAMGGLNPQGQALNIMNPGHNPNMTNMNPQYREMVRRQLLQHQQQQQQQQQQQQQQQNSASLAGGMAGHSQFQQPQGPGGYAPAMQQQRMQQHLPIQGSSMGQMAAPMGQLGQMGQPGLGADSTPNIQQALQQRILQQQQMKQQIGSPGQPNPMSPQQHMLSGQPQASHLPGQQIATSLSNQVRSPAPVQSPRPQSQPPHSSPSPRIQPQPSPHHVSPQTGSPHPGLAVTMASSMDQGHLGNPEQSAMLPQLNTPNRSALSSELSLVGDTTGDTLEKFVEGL
Protocol: Subcellular fractionation. Transfected cells were washed in PBS, placed into 1 ml of buffer A (20 mM Tris-HCl, pH 7.5, 0.25 M sucrose, 10 mM EGTA, 2 mM EDTA, Ix Complete protease inhibitor cocktail), and then passed through a 27 gauge needle 10 times. Obtained lysates were centrifuged at 500×g for 10 minutes and pellets (nuclear fraction) were washed twice with 1 ml of buffer A containing 0.1% Triton X-100 and solubilized by sonication in RIPA buffer. Supernatants were centrifuged at 120,000×g for 45 minutes at 4° C. to separate cytosolic and crude membrane fractions. A 50 μg protein aliquot from the nuclear and cytosolic fractions was analyzed on WBs.
To determine how N-Cad/CTF2 affects CREB-mediated transcription, the following experiments were performed. L cells transfected either with vector (vector) or pN-Cad/CTF2 (N-Cad/CTF2) plasmids were fractionated into nuclear and cytosolic fractions, and probed on WBs with anti-CBP (FIG. 11A, panel a), anti-N-cadherin (FIG. 11A, panel b), anti-β-tubulin (FIG. 11A, panel c) or anti-phosphorylated CREB (P-CREB; FIG. 11A, panel d) antibodies. Extract from pN-Cad/CTF2-transfected L cells was immunoprecipitated either with non-immune serum (NI) or with antibodies against CBP (CBP), β-tubulin (β-Tub), E-cadherin (C36) or N-cadherin (C32). Obtained IPs were probed with anti-CBP (FIG. 11B, upper panel), anti-N-cadherin (FIG. 11B, middle panel) or anti-β-tubulin (FIG. 11B, lower panel) antibodies. For reference, cell lysate was also probed (FIG. 11B, first lane). L cells transiently transfected with pN-Cad/CTF2 were analyzed by immunofluorescence staining. Cells were triple-labeled with DAPI (blue), anti-CBP (red) and anti-N-cadherin (C32; green) antibodies. Nuclear extract from pN-Cad/CTF2-transfected L cells were incubated with biotinylated double-stranded DNA probes containing binding sequence for either CREB (FIG. 11C, left panel) or MEF-1 (FIG. 11C, right panel). […]

Row | Molecule | CRE-dependent transactivation [1] | change of CREB phosphorylation (CBP; N-Cad/CTF2 overexpression, FIG. 11A panel d) | localization of phosphorylated CREB (CBP; transfection with N-Cad/CTF2, FIG. 11A panel d) | nuclear and cytosolic CBP (CBP; transfection with N-Cad/CTF2 vs vector, FIG. 11A)
1 | CC(C)C[C@H](NC(=O)[C@H](Cc1ccccc1)C[C@@H](O)[C@H](Cc1ccccc1)NC(=O)OC(C)(C)C)C(=O)N[C@@H](Cc1ccccc1)C(N)=O [L-685,458] | increased |  |  | 
2 | N-Cad/CTF2: chicken cytoplasmic domain of N-cadherin (N-Cad/CTF2) inserted into vector pECE, expressed in L cells (protein) KRRDKERQAKQLLIDPEDDVRDNILKYDEEGGGEEDQDYDLSQLQQPDTVEPDAIKPVGIRRLDERPIHAEPQYPVRSAAPHPGDIGDFINEGLKAADNDPTAPPYDSLLVFDYEGSGSTAGSLSSLNSSSSGGEQDYDYLNDWGPRFKKLADMYGGGDD |  | not detected | no effects | nuclear CBP decreased with a concomitant increase in cytosolic CBP
